In US20220227830A1, “QD DOSING OF GIP RECEPTOR AGONIST PEPTIDE COMPOUNDS AND USES THEREOF” (Takeda Pharmaceutical Company Limited, priority 2020, published 2022):
Starred links: 1 amine or outer side, 2 acyl side, 3 side chain; linkers in the order of their positions; H or OH if unused. Non-standard residues stand in square brackets, D forms with d. Groups on a side chain read outwards from the residue. No end group written: not given here. *: point of attachment. G2E3 = linker of 2 Gly and 3 Glu (read GGEEE); C15 diacid = O=C(O)CCCCCCCCCCCCCC(=O)*; γGlu = O=C(O)[C@H](CCC(=O)[*:2])N[*:1]; NMeY = CN[C@@H](Cc1ccc(O)cc1)C(=O)O; AEEA = NCCOCCOCC(=O)O; Aib = CC(C)(N)C(=O)O

T1: full-length human GIPR with an N-terminal FLAG tag (human, UniProt P48546 22-466)
T1 sequence (looked up): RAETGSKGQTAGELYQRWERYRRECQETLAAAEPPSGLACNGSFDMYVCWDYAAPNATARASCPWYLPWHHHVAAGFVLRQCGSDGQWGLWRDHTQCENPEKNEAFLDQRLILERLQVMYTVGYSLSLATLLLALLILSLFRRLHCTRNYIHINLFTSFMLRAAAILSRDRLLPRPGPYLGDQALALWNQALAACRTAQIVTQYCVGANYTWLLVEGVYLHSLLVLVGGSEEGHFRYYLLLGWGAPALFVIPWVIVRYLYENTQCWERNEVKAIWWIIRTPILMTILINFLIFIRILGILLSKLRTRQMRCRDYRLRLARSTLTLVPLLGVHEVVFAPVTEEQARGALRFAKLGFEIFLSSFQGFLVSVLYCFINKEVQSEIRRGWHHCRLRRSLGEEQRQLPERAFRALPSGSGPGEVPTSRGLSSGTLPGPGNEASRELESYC

T2: full-length human GIPR with an N-terminal FLAG tag, overexpressed on HEK-293T cells (human, UniProt P48546 22-466)
T2 sequence (looked up): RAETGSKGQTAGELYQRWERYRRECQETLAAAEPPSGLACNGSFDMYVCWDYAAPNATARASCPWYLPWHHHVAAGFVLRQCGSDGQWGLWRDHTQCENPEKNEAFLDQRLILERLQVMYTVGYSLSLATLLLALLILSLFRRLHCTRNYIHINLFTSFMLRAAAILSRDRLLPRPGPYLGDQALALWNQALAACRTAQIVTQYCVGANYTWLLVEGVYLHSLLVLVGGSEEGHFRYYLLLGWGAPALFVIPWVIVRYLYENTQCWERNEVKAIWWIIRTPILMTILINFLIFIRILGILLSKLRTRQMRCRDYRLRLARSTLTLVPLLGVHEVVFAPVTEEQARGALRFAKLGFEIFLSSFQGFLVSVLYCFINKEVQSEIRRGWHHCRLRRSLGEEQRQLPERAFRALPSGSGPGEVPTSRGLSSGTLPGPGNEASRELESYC


Assays:
Assay in all cases: cell-based or functional assay
[1] = biological target: T1, full-length human GIPR with an …
[2] = biological target: full-length human GLP-1R with an N-terminal FLAG tag (human, UniProt P43220 24-463)
[3] = biological target: T2, full-length human GIPR with an …
[4] = biological target: full-length human GLP-1R with an N-terminal FLAG tag, overexpressed on HEK-293T cells (human, UniProt P43220 24-463)

Binder | Human GIPR cAMP, HEK293T EC50 [1] | Human GLP1R cAMP HEK293T EC50 [2] | Human GIPR cAMP, HEK293T EC50 [3] | Human GLP1R cAMP HEK293T EC50 [4]
[NMeY][Aib]EGTFISDYSIALDR[Aib]K([G2E3-C15 diacid])Q[Aib]NFVNWLLAQK-OH (not fully specified (N-terminus)) [Compound 42] | 0.0006 nM | 237 nM |  | 
Me-Y[Aib]EGTFISDYSI[Aib]LDR[Aib]AQ[Aib]K([2OEG-γGlu-γGlu-C15 diacid])FVNWLLAQRG-OH [Compound 207] |  |  | 0.0004 nM | 
Y[Aib]EGTFISDYSIALDR[Aib]AQ[Aib]NFVNWLLAQK([AEEA-γGlu-γGlu-γGlu-C15 diacid]) (not fully specified (residue 1, N-terminus); also: Me-Tyr methyl position not given here) [Compound 43] | 0.0003 nM | 174 nM |  | 
YXEGTFISDYSIALDRXAQXNFVNWLLAQSPSSGAPPPS (N-terminal Me (Me-Tyr1); Aib at 2, 20; Km = Lys(R) at 17, linker printed GS (read as G5 = GGGGG), lipid C15DA (C15 diacid); C-terminal NH2) [Compound 164] |  |  | 0.0002 nM | 9.77 nM
YXEGTFISDYSIALDRXAQXDFVNWLLAQRPSSGAPPPS (N-terminal Me (Me-Tyr1); Aib at 2, 20; Km = Lys(R) at 17, linker printed GS (read as G5 = GGGGG), lipid C15DA (C15 diacid); C-terminal OH) [Compound 165] |  |  | 0.0004 nM | 85.1 nM
YXEGTFISDYSIALDRXAQXDFVNWLLAQSPSSGAPPPS (N-terminal Me (Me-Tyr1); Aib at 2, 20; Km = Lys(R) at 17, linker printed GS (read as G5 = GGGGG), lipid C15DA (C15 diacid); C-terminal OH) [Compound 166] |  |  | 0.0004 nM | 89.1 nM
YXEGTFISDYSIALDRXAQXDFVNWLLAQSPSSGAPPPS (N-terminal Me (Me-Tyr1); Aib at 2, 20; Km = Lys(R) at 17, linker printed GS (read as G5 = GGGGG), lipid C15DA (C15 diacid); C-terminal NH2) [Compound 167] |  |  | 0.0004 nM | 41.7 nM
Me-Y[Aib]EGTFISDYSIALDR[Aib]KQ[Aib]DFVNWLLAQRG-OH (not fully specified (residues 1, 18)) [Compound 169] |  |  | 0.0006 nM | > 1000 nM
Y[Aib]EGTFISDYSIALDR[Aib]AQ[Aib]NFVNWLLAQK([G2E3-C15 diacid]) (not fully specified (residue 1, N-terminus); also: Me-Tyr methyl position not given here) [Compound 41] | 0.0004 nM | 112 nM |  | 
Me-Y[Aib]EGTFISDYSIALDR[Aib]K([AEEA-AEEA-γGlu-γGlu-C15 diacid])Q[Aib]DFVNWLLAQSG-OH [Compound 163] |  |  | 0.0003 nM | > 1000 nM
[NMeY][Aib]EGTFISDYSIALDRK([AEEA-AEEA-γGlu-C15 diacid])HQ[Aib]NFVNWLLAQRPSSGAPPPS-OH (also: Me-Tyr methyl position not given here) [Compound 47] | 0.0003 nM | 110 nM |  | 
[NMeY][Aib]EGTFISDYSIALDR[Aib]AQ[Aib]K([AEEA-γGlu-γGlu-γGlu-C15 diacid])FVNWLLA[Aib]K-OH (not fully specified) [Compound 45] | 0.0003 nM | 48.4 nM |  | 
Me-Y[Aib]EGTFISDYSIALDR[Aib]K([AEEA-AEEA-γGlu-γGlu-C15 diacid])Q[Aib]NFVNWLLAQRG-OH [Compound 171] |  |  | 0.0005 nM | > 1000 nM
Me-Y[Aib]EGTFISDYSIAK([Gly-Gly-Gly-Gly-γGlu-C15 diacid])DR[Aib]AQ[Aib]DFVNWLLAQKG-OH [Compound 180] |  |  | 0.0003 nM | > 1000 nM
Me-Y[Aib]EGTFISDYSIALDR[Aib]K([AEEA-AEEA-γGlu-γGlu-C15 diacid])Q[Aib]DFVNWLLAQRG-OH [Compound 162] |  |  | 0.0002 nM | 513 nM
Me-Y[Aib]EGTFISDYSI[Aib]LDR[Aib]AQ[Aib]K([AEEA-AEEA-γGlu-γGlu-C15 diacid])FVNWLLAQKG-OH [Compound 175] |  |  | 0.0004 nM | 44.7 nM
Me-Y[Aib]EGTFISDYSIALDR[Aib]AQ[Aib]KFVNWLLAQKG-OH (not fully specified (residues 1, 21)) [Compound 214] |  |  | 0.0003 nM | 

Binder | Human GIPR cAMP, HEK293T EC50 [1] | Human GLP1R cAMP HEK293T EC50 [2] | Human GIPR cAMP, HEK293T EC50 [3] | Human GLP1R cAMP HEK293T EC50 [4]
Me-Y[Aib]EGTFISDYSIAKDR[Aib]AQ[Aib]DFVNWLLAQRG-OH (not fully specified (residues 1, 14)) [Compound 173] |  |  | 0.0005 nM | > 1000 nM
YXEGTFISDYSIAXDRXAQXDFVNWLLAQSPSSG (N-terminal Me (Me-Tyr1); Aib at 2, 17, 20; Km = Lys(R) at 14, linker printed GS (read as G5 = GGGGG), lipid C15DA (C15 diacid); C-terminal OH) [Compound 158] |  |  | 0.0002 nM | 245 nM
Me-Y[Aib]EGTFISDYSI[Aib]LDR[Aib]AQ[Aib]KFVNWLLAQRG-OH (not fully specified (residues 1, 21)) [Compound 208] |  |  | 0.0003 nM | 
Me-Y[Aib]EGTFISDYSIALDR[Aib]K([AEEA-AEEA-γGlu-γGlu-C15 diacid])Q[Aib]NFVNWLLAQSG-OH [Compound 161] |  |  | 0.0003 nM | > 1000 nM
Me-Y[Aib]EGTFISDYSIALDR[Aib]KQ[Aib]DFVNWLLAQSG-OH (not fully specified (residues 1, 18)) [Compound 170] |  |  | 0.0004 nM | > 1000 nM
YXEGTFISDYSIAXDRXAQXDFVNWLLAQSPSSGAPG (N-terminal Me (Me-Tyr1); Aib at 2, 17, 20; Km = Lys(R) at 14, linker printed GS (read as G5 = GGGGG), lipid C15DA (C15 diacid); C-terminal OH) [Compound 157] |  |  | 0.0001 nM | 347 nM
[NMeY][Aib]EGTFISDYSIALDR[Aib]AQ[Aib]K([AEEA-γGlu-γGlu-γGlu-C15 diacid])FVNWLL[Aib]QK-OH (not fully specified) [Compound 40] | 0.0008 nM | 115 nM |  | 
YXEGTFISDYSIAXDRXAQXDFVNWLLAQSPG (N-terminal Me (Me-Tyr1); Aib at 2, 17, 20; Km = Lys(R) at 14, linker printed GS (read as G5 = GGGGG), lipid C15DA (C15 diacid); C-terminal OH) [Compound 159] |  |  | 0.0002 nM | 145 nM
YXEGTFTSDYSIYLDKQAAXEFVNWLLAGGPSSGAPPPSX (not fully specified; no N-terminal group printed; Aib at 2, 20; Km = Lys(R) at 40, linker not given, lipid C16; C-terminal NH2) [Compound 191] |  |  | 0.0049 nM | 
[NMeY][Aib]EGTFISDYSIALDR[Aib]K([AEEA-γGlu-γGlu-γGlu-C15 diacid])Q[Aib]NFVNWLLAQK (not fully specified (N-terminus)) [Compound 44] | 0.0004 nM | 631 nM |  | 
[NMeY][Aib]EGTFTSDYSIYK([AEEA-AEEA-γGlu-C15 diacid])DR[Aib]AQ[Aib]NFVNWLLAQRPSSGAPPPS-OH (not fully specified) [Compound 46] | 0.0002 nM | 0.144 nM |  | 
[NMeY][Aib]EGTFISDYSIAK([AEEA-γGlu-γGlu-γGlu-C15 diacid])DR[Aib]AQ[Aib]NFVNWLLA[Aib]K-OH (not fully specified) [Compound 39] | 0.0005 nM | 398 nM |  | 
Me-Y[Aib]EGTFISDYSIALDR[Aib]AQ[Aib]KFVNWLLAQKG-OH (not fully specified (residues 1, 21)) [Compound 204] |  |  | 0.0008 nM | 
YXEGTFISDYSIAXDRXAQXNFVNWLLAQSG (N-terminal Me (Me-Tyr1); Aib at 2, 17, 20; Km = Lys(R) at 14, linker printed GS (read as G5 = GGGGG), lipid C15DA (C15 diacid); C-terminal OH) [Compound 160] |  |  | 0.0003 nM | 24 nM
YXEGTFISDYSIAXDSXAQXDFVNWLLAQKG (N-terminal Me (Me-Tyr1); Aib at 2, 17, 20; Km = Lys(R) at 14, linker printed GS (read as G5 = GGGGG), lipid C15DA (C15 diacid); C-terminal OH) [Compound 177] |  |  | 0.0002 nM | 1000 nM
YXEGTFISDYSIAXDRXAQXDFVNWLLAQSG (N-terminal Me (Me-Tyr1); Aib at 2, 17, 20; Km = Lys(R) at 14, linker printed GS (read as G5 = GGGGG), lipid C15DA (C15 diacid); C-terminal OH) [Compound 172] |  |  | 0.0004 nM | 64.6 nM
YXEGTFISDYSIALDRXAQXDFVNWLLAQSG (N-terminal Me (Me-Tyr1); Aib at 2, 20; Km = Lys(R) at 17, linker printed GS (read as G5 = GGGGG), lipid C15DA (C15 diacid); C-terminal OH) [Compound 168] |  |  | 0.0003 nM | 17.4 nM
